Target: T1, FXIS557A catalytic domain (catalytically inactive catalytic domain of human FXI, Ile370 to Ala606 of SEQ ID … (human))
T1 construct: The range 20-264 is worked out from 19 signal residues + 237 domain residues + 8 His; also called FXIS557A catalytic domain decoy; decoy
Experiment: SPR (Biacore T200), biotinylated FXIS557A catalytic domain captured on CAP chip, DEF Fab injected, 37 C, 1:1 Langmuir fit
Procedure: Binding affinity was measured using a Biacore T200 Instrument (GE Healthcare). Recombinant FXIS557A catalytic domain was biotin labeled via primary amines and captured on a Biacore CAP chip (GE Healthcare). Experiments were performed at 37° C. using a 30 μ/min flow rate in 10 mM HEPES (pH 7.4), 150 mM NaCI and 0.005% v/v Surfactant P20 (HBSp) buffer (GE Healthcare). After each DEF Fab injection, the chip surface was regenerated with a solution of 6 M guanidine-HCl and 0.25 M NaOH, coated with the CAP reagent and new FXIS557A was captured. All data was analyzed using the Biacore T200 Evaluation software and background and buffer subtracted data fit to a 1:1 Langmuir binding model. Results were reported as the mean of two experiments.

koff: 0.000445 s⁻¹
kon: 2.95e+06 M⁻¹ s⁻¹
B1: DEF Fab (Fab, V domains shown)
VH: EVQLVQSGAEVKKPGASVKVSCKASGYTFTGYYMHWVRQAPGQGLEWMGWIDPDEGDTNYAQKFQGRVTMTRDTSISTAYMELSRLRSDDTAVYYCARLASGFRDYWGQGTLVTVSS
VL: DIVMTKSPSSLSASVGDRVTITCRASQGIRNDLGWYQQKPGKAPKRLIYAASSLQSGVPSRFSGSGSGTEFTLTISSLQPEDFATYYCLQHDIYASTFGPGTKVDIKR
notes: Fab form of antibody DEF

Reference: US20180216094A1 (University of California, published 2018)
